Assays:
[1] = tested on: O=Cc1ccc(-c2ccccc2)cc1; test: purified protein; type: biochemical, Thalictrum flavum; settings: co-substrate dopamine (concentration not stated), aldehyde 0.5-50 mM, general assay: HEPES pH 7.5, 20% DMSO, 5 mM ascorbic acid
[2] = tested on: O=Cc1ccccc1; test: purified protein; type: biochemical, Thalictrum flavum; settings: co-substrate dopamine (concentration not stated), aldehyde 0.5-50 mM, general assay: HEPES pH 7.5, 20% DMSO, 5 mM ascorbic acid

| Substance | Km [1] | Km [2] |
| --- | --- | --- |
| TfNCS (norcoclaurine synthase) (Thalictrum flavum subsp. glaucum) | 15.0 ± 4.6 mM | 22.3 ± 6.7 mM |
| TfNCS (norcoclaurine synthase) (Thalictrum flavum subsp. glaucum; L68T/M97V) | 14.6 ± 5.1 mM | 20.1 ± 5.3 mM |

— paper PMC10992437, “Engineering a norcoclaurine synthase for one-step synthesis of (S)-1-aryl-tetrahydroisoquinolines” (Bioresources and Bioprocessing, 2023)
